We go through 1 molecule from US20170128524A1 (published 2017).

The test concerns the target T1, Syntaxin 1a (mouse, UniProt O35526 1-288).
T1 construct: also called STX1a; STX 1a
The test is described as follows: Co-IP with anti-STX1a antibody from mouse cortical synaptosomes, Western blot. Background: A western blot detects proteins with antibodies after separation by electrophoresis.

T1 sequence (O35526 whole entry): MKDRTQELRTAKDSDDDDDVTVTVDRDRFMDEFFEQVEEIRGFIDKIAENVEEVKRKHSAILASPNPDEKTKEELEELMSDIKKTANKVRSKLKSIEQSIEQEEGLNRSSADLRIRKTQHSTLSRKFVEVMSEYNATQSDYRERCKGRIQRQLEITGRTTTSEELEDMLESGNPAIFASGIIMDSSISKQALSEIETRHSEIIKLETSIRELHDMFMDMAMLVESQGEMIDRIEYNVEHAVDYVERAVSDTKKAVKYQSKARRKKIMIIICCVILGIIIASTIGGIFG

B1: c-Jun N-terminal Kinase isoform 1 (JNK1) (enzyme, mouse, UniProt Q91Y86 1-384, looked up)
chain: MSRSKRDNNFYSVEIGDSTFTVLKRYQNLKPIGSGAQGIVCAAYDAILERNVAIKKLSRPFQNQTHAKRAYRELVLMKCVNHKNIIGLLNVFTPQKSLEEFQDVYIVMELMDANLCQVIQMELDHERMSYLLYQMLCGIKHLHSAGIIHRDLKPSNIVVKSDCTLKILDFGLARTAGTSFMMTPYVVTRYYRAPEVILGMGYKENVDLWSVGCIMGEMVCHKILFPGRDYIDQWNKVIEQLGTPCPEFMKKLQPTVRTYVENRPKYAGYSFEKLFPDVLFPADSEHNKLKASQARDLLSKMLVIDASKRISVDEALQHPYINVWYDPSEAEAPPPKIPDKQLDEREHTIEEWKELIYKEVMDLEERTKNGVIRGQPSPLAQVQQ
notes: Lower 46 kDa band of the JNK signal in the non-immunoprecipitated control; also called lower band, 46 kDa
As for B1, the binding result is listed as “no binding”.
